Measurements from patent publication US11332546B2, “Protease inhibitory antibodies and methods of use thereof” (The Regents of The University of California, priority 2019, dated 2022).
Residue numbers refer to the chain shown, from its start.

Tests used:
[1] = molecular target: T1, cdMMP-14 (Homo sapiens, UniProt P50281); assay: In vitro proteolytic stability of Fab with its target protease (cdMMP-14); format: physicochemical; design: human MMP-14 (residue 114-320); hexahistidine (C); made in house; host or cells: E. coli (periplasm); details: 1 μM Fab with 1 μM protease, 37° C., 24 hours, SDS-PAGE
[2] = system: cdMMP-9; assay: FRET inhibition selectivity test, cdMMP-9 (Example 1); format: biochemical; details: Fab at 500 nM
Procedure: (§3) For inhibition tests, 1 μM Fabs were 2-fold serially diluted into protease specific assay buffer and incubated with 1-10 nM proteases for 30 min at room temperature. […] Inhibition percentages at given concentrations were calculated by comparing the initial reaction rates in the presence or absence of inhibitor. IC50 was determined as the concentration that achieved 50% inhibition, and KI values were calculated using KI=IC50/(S/Km+1). Vmax and Km at various Fab concentrations were measured to determine the inhibition type. FRET inhibition assays were also used for selectivity tests of isolated Fabs with the relevant proteases.

[3] = molecular target: T2, BACE1 (Homo sapiens, UniProt P56817); assay: FRET peptide inhibition assay, BACE1 (M-2420); format: biochemical; details: IgG format; BACE-1, FRET peptide
T2 construct: human β-secretase 1 (BACE1, residue 46-457); made in house; host or cells: HEK293F (secreted, protein A purified)
T2 sequence (P56817 46-457): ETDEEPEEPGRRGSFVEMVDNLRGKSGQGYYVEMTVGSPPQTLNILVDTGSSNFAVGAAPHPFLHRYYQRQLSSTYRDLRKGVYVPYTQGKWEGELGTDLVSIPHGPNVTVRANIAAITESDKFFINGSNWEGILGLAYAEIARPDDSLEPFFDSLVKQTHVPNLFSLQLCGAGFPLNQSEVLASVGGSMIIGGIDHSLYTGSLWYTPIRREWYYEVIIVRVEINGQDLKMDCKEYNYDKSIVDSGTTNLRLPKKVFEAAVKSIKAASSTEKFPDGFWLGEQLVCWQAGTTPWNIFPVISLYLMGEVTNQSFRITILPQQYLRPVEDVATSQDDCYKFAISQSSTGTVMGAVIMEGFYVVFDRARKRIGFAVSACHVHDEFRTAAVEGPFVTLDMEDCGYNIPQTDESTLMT
Procedure: as §3

[4] = molecular target: T3, BACE2 (Homo sapiens, UniProt Q9Y5Z0); assay: FRET inhibition selectivity test, BACE2; format: biochemical; details: IgG
T3 sequence (Q9Y5Z0 63-518): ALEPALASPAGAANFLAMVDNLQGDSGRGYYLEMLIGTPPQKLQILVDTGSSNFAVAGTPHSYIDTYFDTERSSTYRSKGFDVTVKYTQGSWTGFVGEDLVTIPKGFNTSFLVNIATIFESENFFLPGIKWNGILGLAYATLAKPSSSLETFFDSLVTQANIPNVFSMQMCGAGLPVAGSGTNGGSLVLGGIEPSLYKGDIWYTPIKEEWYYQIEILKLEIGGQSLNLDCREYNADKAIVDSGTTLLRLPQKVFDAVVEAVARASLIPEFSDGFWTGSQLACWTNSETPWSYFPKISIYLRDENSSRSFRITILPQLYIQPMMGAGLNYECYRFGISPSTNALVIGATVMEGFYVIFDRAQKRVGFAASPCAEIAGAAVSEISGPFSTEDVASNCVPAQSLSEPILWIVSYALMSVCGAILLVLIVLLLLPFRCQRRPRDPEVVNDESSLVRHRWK
Procedure: as §3

[5] = molecular target: T2, BACE1; assay: Amyloid precursor protein (MBP-APP571-696) degradation by BACE1; format: biochemical; details: 1 μM IgG, 1 μM BACE1, 5 μM MBP-APP, 37° C., 24 h; 86% without IgG
Procedure: For amyloid precursor protein (APP) degradation studies, APP571-696 was cloned to the C-terminal of maltose binding protein (MBP) for E. coli expression and purified using amylose resin (NEB). 5 μM purified MBP-APP was incubated with 1 μM BACE1-Fc in the absence or presence of 1 μM IgG in BACE1 assay buffer at 37° C. for 24 h. In addition, APP571-696 was cloned to a pcDNA plasmid carrying a SPE leader for secretion expression. Transfected HEK293F cells were cultured in Expi293 media for 72 hrs with the presence of 14-800 nM purified IgG. The supernatants were clarified by centrifugation and 0.45 μm filtration, and produced Aβ1-40 was quantified by ELISA (Abcam).

[6] = molecular target: T4, cdMMP-12 mutant D4 (Homo sapiens, UniProt P39900, A167E/A173P/A252Q/H206S/I245T/K233R/M156E/N119Q/N126H/R135E/T215V/V161I/Y113D/Y132K); assay: Proteolytic stability of Fabs with cdMMP-12 D4; format: physicochemical; details: 2 μM Fab, 2 μM cdMMP-12 D4, 4 h, 37° C.
T4 construct: hexahistidine (C); made in house; host or cells: E. coli BL21, pET32b (cytoplasmic, soluble fraction)
T4 sequence (P39900 106-263 Y113D/N119Q/N126H/Y132K/R135E/M156E/V161I/A167E/A173P/H206S/T215V/K233R/I245T/A252Q): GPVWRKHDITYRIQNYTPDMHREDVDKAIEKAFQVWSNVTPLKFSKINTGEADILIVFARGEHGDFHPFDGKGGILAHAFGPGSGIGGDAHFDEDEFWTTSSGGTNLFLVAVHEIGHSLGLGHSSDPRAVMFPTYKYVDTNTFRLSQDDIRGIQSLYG
Procedure: (§1) Proteolytic stability tests 2 μM purified Fabs were incubated with 2 μM cdMMP-12 wt/D4 in 50 mM HEPES, 150 mM NaCl pH 7.5 at 37° C. for 4 h. Samples were analyzed by using 12% non-reducing SDS-PAGE and stained with Coomassie blue. Densitometric interpretation was conducted using a ChemiDoc imager (Bio-Rad).

[7] = molecular target: T1, cdMMP-14; assay: Bio-layer interferometry on cdMMP-14; format: binding; design: human MMP-14 (residue 114-320); hexahistidine (C); made in house; host or cells: E. coli periplasm; details: listed as LG4; read-out: KD toward cdMMP-14
[8] = molecular target: T4, cdMMP-12 mutant D4; assay: FRET peptide inhibition assay, cdMMP-12 D4; format: biochemical; details: cdMMP-12 D4, FRET peptide, 31-500 nM Fab
Procedure: (§2) FRET peptide inhibition assays In 96-well assay plates (Corning), 60/250/350/10/10/30 nM of (cd)MMP-1/-7/-9/-12 D4/-12 wt/-14 were preincubated with 1 nM-1 μM purified Fabs for 30 min at room temperature then 1 μM substrate M-2350 (Bachem) was added. Generated fluorescent signals (λEx=328 nm, λEm=393 nm) were monitored at 37° C. to measure the initial velocities. To calculate inhibition constants (KIs), data were fit with the equations for slow tight-binding inhibitors. The inhibition type of the Fabs was determined using the initial velocities of cdMMP-12 D4 as a function of substrate concentration (250-2000 nM) at various Fab concentrations (31-500 nM). The values of Vmax and Km were derived from linearization in accordance with the Lineweaver-Burk equation.

[9] = molecular target: T5, cdMMP-12 wt (Homo sapiens, UniProt P39900); assay: Inhibition of proteolysis of modified TEM-1 ([…]) by cdMMP-12 wt; format: biochemical; details: 10 μM Fab, 700 nM cdMMP-12 wt, 250 nM modified TEM-1, 4 h
T5 construct: hexahistidine (C); made in house; host or cells: E. coli BL21 (pET32b, cytoplasmic)
T5 sequence (P39900 106-263): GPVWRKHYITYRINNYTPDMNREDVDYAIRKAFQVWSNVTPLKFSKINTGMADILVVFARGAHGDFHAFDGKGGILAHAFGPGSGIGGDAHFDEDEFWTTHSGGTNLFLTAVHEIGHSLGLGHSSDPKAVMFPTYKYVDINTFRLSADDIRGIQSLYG
Procedure: Inhibition tests with macromolecular substrates 10 μg/mL FITC-conjugated elastin (AnaSpec) was incubated with 7 nM cdMMP-12 D4/wt and 2-2000 nM purified Fab in 50 mM Tris-HCl, 150 mM NaCl, 5 mM CaCl2), 100 μM ZnCl2 pH 7.5. Generated fluorescent signals were measured at 12 h with λEx of 490 nm and λEm of 520 nm. For inhibition assays on fibronectin, 200 nM fibronectin (Corning) was incubated with 200-350 nM cdMMP-12 wt and 2 μM GM6001 or 0.1-6 μM Fabs in 50 mM HEPES, 150 mM NaCl pH 7.5 at 37° C. for 2-4 h. The samples were separated on 5% non-reducing SDS-PAGE and analyzed by western blotting with anti-Fibronectin antibody (Abcam) and chemiluminescent substrate (Thermo Scientific). For inhibition assays on modified TEM-1 carrying cleavable sequence ([…] (SEQ ID NO:134)) and a N-terminal HA tag, 250 nM modified TEM-1 was incubated with 700 nM cdMMP-12 wt and 10 μM Fabs in 50 mM HEPES, 150 mM NaCl pH 7.5 at 37° C. for 4 h. The samples were separated on 12% non-reducing SDS-PAGE, and the modified TEM-1 was visualized by western blotting using anti-HA antibody (Invitrogen) and chemiluminescent substrate. Assays without cdMMP-12s or Fabs were performed as controls.

[10] = molecular target: T5, cdMMP-12 wt; assay: FRET peptide inhibition assay, cdMMP-12 wt; format: biochemical; details: toward cdMMP-12 wild type; listed as LG4
Procedure: as §2

[11] = molecular target: T5, cdMMP-12 wt; assay: Fibronectin proteolysis inhibition, cdMMP-12 wt (western blot); format: biochemical
Procedure: Inhibition tests with macromolecular substrates 10 μg/mL FITC-conjugated elastin (AnaSpec) was incubated with 7 nM cdMMP-12 D4/wt and 2-2000 nM purified Fab in 50 mM Tris-HCl, 150 mM NaCl, 5 mM CaCl2), 100 μM ZnCl2 pH 7.5. Generated fluorescent signals were measured at 12 h with λEx of 490 nm and λEm of 520 nm. […] The samples were separated on 5% non-reducing SDS-PAGE and analyzed by western blotting with anti-Fibronectin antibody (Abcam) and chemiluminescent substrate (Thermo Scientific). […] Assays without cdMMP-12s or Fabs were performed as controls.

[12] = molecular target: T5, cdMMP-12 wt; assay: Proteolytic stability of Fabs with cdMMP-12 wt; format: physicochemical; details: 2 μM Fab, 2 μM cdMMP-12 wt, 4 h, 37° C.
Procedure: as §1

[13] = molecular target: cdMMP-9; assay: Bio-layer interferometry on cdMMP-9; format: binding; details: listed as LG4; read-out: KD toward cdMMP-9
Target sequence in this assay (P14780 with tags, fused parts or gaps DEL216-390 limits assumed): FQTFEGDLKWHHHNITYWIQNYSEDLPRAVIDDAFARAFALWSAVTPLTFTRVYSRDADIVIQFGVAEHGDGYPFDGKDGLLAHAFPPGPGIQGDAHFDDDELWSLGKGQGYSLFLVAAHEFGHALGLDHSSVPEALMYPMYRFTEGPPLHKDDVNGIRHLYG

B1: Fab 2B4: anti-MMP-14 antibody clone; VL SEQ ID NO:88, VH SEQ ID NO:1, CDR-H3 SEQ ID NO:4 (antibody, V domains shown)
VH: EVQLVESGGGLVQPGGSLRLSCAASGFNLYSSYIHWVRQAPGKGLEWVASIYSSYSSTYYADSVKGRFTISADTSKNTAYLQMNSLRAEDTAVYYCARSDSAVYSVRRMGSSGLAAYAMDYWGQGTLVTVSSAS
VL: DIQMTQSPSSLSASVGDRVTITCRASQSVSSAVAWYQQKPGKAPKLLIYSASSLYSGVPSRFSGSRSGTDFTLTISSLQPEDFATYYCQQYSYGYSSLITFGQGTKVEIKR
In the case of B1, the “Fab remained intact after exposure to protease” value [1] is reported as 76% and the “Inhibition of cdMMP-9 (selectivity)” value [2] is reported as “did not inhibit”.

B2: IgG B1A4: anti-BACE1 inhibitory Fab B1A4 converted into IgG format (antibody, V domains shown)
VH: EVQLVESGGGLVQPGGSLRLSCAASGFNISYSSIHWVRQAPGKGLEWVAYISPSSSYTSYADSVKGRFTISADTSKNTAYLQMNSLRAEDTAVYYCARHYYVSVGSGIDYWGQGTLVTVSSAS
VL: B1 VL with L73P, Y91A, Y93A, G94S, Y95P, S96Y, S97A
With B2 the “Inhibition Potency KI (associated IgG, in parentheses)” value [3] was 35 nM, the “Inhibition of BACE2 (selectivity)” value [4] was “but not BACE2” and the “Cleavage of APP571-696 by BACE1 in presence of IgG” value [5] was 37%.

B3: Fab LG4: anti-MMP-12 antibody clone; VL SEQ ID NO:112, VH SEQ ID NO:114, CDR-H3 SEQ ID NO:117 (antibody, V domains shown)
VH: EVQLVESGGGLVQPGGSLRLSCAASGFNLYYSYMHWVRQAPGKGLEWVASISSYYGYTSYADSVKGRFTISADTSKNTAYLQMNSLRAEDTAVYYCARSPIVYYELFMFIDMGAQGWKYGMDYWGQGTLVTVSSAS
VL: DIQMTQSPSSLSASVGDRVTITCRASQSVSSAVAWYQQKPGKAPKLLIYSASSLYSGVPSRFSGSRSGTDFTLTISSLQPEDFATYYCQQTFYPFTFGQGTKVEIKR
B3 was tested, and the “Degradation of Fab by cdMMP-12 D4” value [6] was “no significant degradation”, the Kd [7] was about 700 nM and the “Type of inhibition (Lineweaver-Burk)” value [8] was “substrate competitive manner”. For the same molecule, the “Inhibition of modified TEM-1 (PLGLEEAK) proteolysis” value [9] was “significant inhibition”, the “Inhibition FRET peptide” value [10] was “non-” and the “Fibronectin remaining after cdMMP-12 wt hydrolysis” value ([11]; 6 μM Fab, 350 nM wt cdMMP-12, 200 nM fibronectin, 37° C.) was “significant amounts of fibronectin remained”. For the same molecule, the “Inhibition Fibronectin IC50” value ([11]; toward cdMMP-12 wild type, 200 nM enzyme, 200 nM fibronectin) was “Inhib”, the “Fab remained intact after exposure to cdMMP-12 wt” value [12] was 54% and the Kd [13] was 720 nM.
